# How the values were obtained:
# Details in all cases: tags: HA tag (YPYDVPDYA) at C-terminus; label: biotin
# [1] = target: CXCR4-5-1 six-zinc finger peptide (synthetic construct); assay: fluorescence ELISA; 10 nM site, 50 uM ZnCl2, salmon sperm competitor, RT
# Experimental: (§1) DNA binding reactions contained the appropriate zinc finger peptide, biotinylated binding site (10 nM) and 5 μg competitor. DNA (sonicated salmon sperm DNA), in a total volume of 50 μl, which contained: 1×PBS (pH 7.0), 1.25×10⁻³ U high affinity anti-HA-Peroxidase antibody (Boehringer Mannheim), 50 μM ZnCl₂, 0.01 mg/ml BSA, and 0.5% Tween 20. Incubations are performed at room temperature for 40 minutes. Black streptavidin-coated wells are blocked with 4% marvel for 1 hour. Binding reactions are added to the streptavidin-coated wells and incubated for a further 40 minutes at room temperature. Wells are washed 5 times in 100 μl wash buffer (1×PBS (pH 7.0), 50 μM ZnCl₂, 0.01 mg/ml BSA, and 0.5% Tween 20), and finally 50 μl QuantaBlu peroxidase substrate solution (Pierce) is added to detect bound HA-tagged zinc finger peptide. ELISA signals are read in a SPECTRAmax GeminiXS spectrophotometer (Molecular Devices) and analysed using SOFTmax Pro 3.1.2 (Molecular Devices).
# (§2) Zinc finger peptides are expressed using the T7 TNT Quick Coupled Transcription/Translation System for PCR templates (Promega) and assayed for DNA-binding by fluorescence ELISA (see above; FIG. 1). Binding is plotted vertically, on a relative scale. Sequences of the DNA target sites used in each binding reaction are shown below the figure. […]
# [2] = target: CXCR4-10-1 six-zinc finger peptide (synthetic construct); assay: as above
# Experimental: as §1, §2
# [3] = target: T1, TNFR1-7-9 six-zinc finger peptide (synthetic construct); assay: fluorescence ELISA; 50 uM ZnCl2, RT
# Experimental: as §1
# (§3) Zinc finger peptides are expressed using the T7 TNT Quick Coupled Transcription/Translation System for PCR templates (Promega) and assayed for DNA-binding by fluorescence ELISA, as described above in Examples 4 and 6. Sequences of the DNA target sites used in each binding reaction are shown below FIG. 3A.
# [4] = target: TNFR1-4-2 six-zinc finger peptide (synthetic construct); assay: fluorescence ELISA; 50 uM ZnCl2, RT
# Experimental: as §1, §3
# [5] = target: T1, TNFR1-7-9 six-zinc finger peptide; assay: fluorescence ELISA; control site; signal only in figure, text states specific binding
# Experimental: as §1, §3
# [6] = target: TNFR1-9-12 six-zinc finger peptide (synthetic construct); assay: as above
# Experimental: as §1, §3
# T1 sequence (chain, as listed by the source): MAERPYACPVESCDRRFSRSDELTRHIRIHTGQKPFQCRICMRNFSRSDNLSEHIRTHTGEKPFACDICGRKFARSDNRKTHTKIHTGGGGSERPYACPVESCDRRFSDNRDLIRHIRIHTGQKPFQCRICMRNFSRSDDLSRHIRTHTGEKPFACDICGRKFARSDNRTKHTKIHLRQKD
# Chain of CXCR4-10-1 six-zinc finger peptide (synthetic construct) (chain, as listed by the source): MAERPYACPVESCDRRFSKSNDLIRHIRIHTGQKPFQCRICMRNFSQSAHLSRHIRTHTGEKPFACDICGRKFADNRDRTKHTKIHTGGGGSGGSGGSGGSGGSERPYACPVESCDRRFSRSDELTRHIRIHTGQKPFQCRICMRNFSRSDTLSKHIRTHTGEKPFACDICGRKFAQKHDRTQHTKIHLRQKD
# Chain of CXCR4-5-1 six-zinc finger peptide (synthetic construct) (chain, as listed by the source): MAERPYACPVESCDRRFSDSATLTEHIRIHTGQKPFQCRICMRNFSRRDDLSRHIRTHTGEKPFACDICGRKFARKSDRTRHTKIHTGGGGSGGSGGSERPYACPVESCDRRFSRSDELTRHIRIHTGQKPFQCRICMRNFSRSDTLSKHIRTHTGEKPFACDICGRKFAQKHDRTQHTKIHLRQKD
# Chain of TNFR1-4-2 six-zinc finger peptide (synthetic construct) (chain, as listed by the source): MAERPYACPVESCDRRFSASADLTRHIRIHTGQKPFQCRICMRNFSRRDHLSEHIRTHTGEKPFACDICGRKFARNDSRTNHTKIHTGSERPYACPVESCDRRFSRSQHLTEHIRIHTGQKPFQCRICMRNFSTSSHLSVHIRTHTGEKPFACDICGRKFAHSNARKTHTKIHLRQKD
# Chain of TNFR1-9-12 six-zinc finger peptide (synthetic construct) (chain, as listed by the source): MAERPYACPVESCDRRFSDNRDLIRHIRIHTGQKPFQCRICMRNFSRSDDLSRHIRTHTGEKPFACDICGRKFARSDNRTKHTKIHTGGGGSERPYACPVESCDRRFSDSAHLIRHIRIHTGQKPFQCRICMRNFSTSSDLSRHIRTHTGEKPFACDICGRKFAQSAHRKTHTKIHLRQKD
binder,measurement,setting,value
CXCR4-5-1 target site (dsDNA) DNA 1: CCGCCCCAGCGGCGCATGCGCCGCGCTCGGAGCGTGTT DNA 2: AACACGCTCCGAGCGCGGCGCATGCGCCGCTGGGGCGG,binding result,[1],binds
CXCR4-10-1 target site (dsDNA) DNA 1: CCGCCCCAGCGGCGCATGCGCCGCGCTCGGAGCGTGTT DNA 2: AACACGCTCCGAGCGCGGCGCATGCGCCGCTGGGGCGG,binding result,[2],binds
TNFR1 site 7-9 / 7-10 (dsDNA) DNA 1: TGGAGGAGGAGGCCACAGGAGGCGGGAGGA DNA 2: TCCTCCCGCCTCCTGTGGCCTCCTCCTCCA,binding result,[3],binds
TNFR1 site 4-2 (dsDNA) DNA 1: GTCGGATTGGTGGGTTGGGGGCACAAGGCA DNA 2: TGCCTTGTGCCCCCAACCCACCAATCCGAC,binding result,[4],binds
same,binding result,[5],no binding
same,binding result,[6],no binding
